Reference: patent publication US20210246166A1 (Bayer, published 2021)
Numbered stars: 1 amine (or outer) side, 2 acyl side, 3 side chain; on linkers, the order of the positions; unused ones are H or OH. Bridge positions count the residues as written; N and C are the ends. Square brackets hold non-standard residues; d marks the D form. Ends that are not written are not given here. * marks the point of attachment. cPrCO(1-aminomethyl) = O=C(C1(CN[*:1])CC1)[*:2]; Dihydroorotyl(S) = O=C1C[C@@H](C(=O)*)NC(=O)N1; Oic = O=C(O)[C@@H]1C[C@@H]2CCCC[C@@H]2N1; PEG8 = NCCOCCOCCOCCOCCOCCOCCOCCOCCC(=O)O; PEG7 = NCCOCCOCCOCCOCCOCCOCCOCCC(=O)O; tBuAla = CC(C)(C)C[C@H](N)C(=O)O; Cit = NC(=O)NCCC[C@H](N)C(=O)O; Pen = CC(C)(S)[C@H](N)C(=O)O; NMeC = CN[C@@H](CS)C(=O)O; Pip = O=C(O)[C@@H]1CCCCN1; NMeA = CN[C@@H](C)C(=O)O; Orn = NCCC[C@H](N)C(=O)O; GABA = NCCCC(=O)O; Sar = CNCC(=O)O

B1: (Orn)-IC+SRS-((tBu)A)-PPI-(Pen)+IPD-OH (peptide)
peptide: [Orn]ICSRS[tBuAla]PPI[Pen]IPD-OH
modifications: disulfide 3-11; N-terminus assumed
SMILES: CC[C@H](C)[C@H](NC(=O)[C@@H](N)CCCN)C(=O)N[C@H]1CSSC(C)(C)[C@@H](C(=O)N[C@H](C(=O)N2CCC[C@H]2C(=O)N[C@@H](CC(=O)O)C(=O)O)[C@@H](C)CC)NC(=O)[C@H]([C@@H](C)CC)NC(=O)[C@@H]2CCCN2C(=O)[C@@H]2CCCN2C(=O)[C@H](CC(C)(C)C)NC(=O)[C@H](CO)NC(=O)[C@H](CCCNC(=N)N)NC(=O)[C@H](CO)NC1=O
B2: AIC+SRSLP-(Oic)-I-((N-Me)C)+IP-NH2 (peptide)
peptide: AICSRSLP[Oic]I[NMeC]IP-NH2
modifications: disulfide 3-11; N-terminus assumed
SMILES: CC[C@H](C)[C@H](NC(=O)[C@H](C)N)C(=O)N[C@H]1CSSC[C@@H](C(=O)N[C@H](C(=O)N2CCC[C@H]2C(N)=O)[C@@H](C)CC)N(C)C(=O)[C@H]([C@@H](C)CC)NC(=O)[C@@H]2C[C@@H]3CCCC[C@@H]3N2C(=O)[C@@H]2CCCN2C(=O)[C@H](CC(C)C)NC(=O)[C@H](CO)NC(=O)[C@H](CCCNC(=N)N)NC(=O)[C@H](CO)NC1=O
B3: (Pip)-IC+SRS-((tBu)A)-PPI-((N-Me)C)+IPD-NH2 (peptide)
peptide: [Pip]ICSRS[tBuAla]PPI[NMeC]IPD-NH2
modifications: disulfide 3-11; N-terminus assumed
SMILES: CC[C@H](C)[C@H](NC(=O)[C@@H]1CCCCN1)C(=O)N[C@H]1CSSC[C@@H](C(=O)N[C@H](C(=O)N2CCC[C@H]2C(=O)N[C@@H](CC(=O)O)C(N)=O)[C@@H](C)CC)N(C)C(=O)[C@H]([C@@H](C)CC)NC(=O)[C@@H]2CCCN2C(=O)[C@@H]2CCCN2C(=O)[C@H](CC(C)(C)C)NC(=O)[C@H](CO)NC(=O)[C@H](CCCNC(=N)N)NC(=O)[C@H](CO)NC1=O
B4: ((N-Me)G)-IC+SRSLP-(Oic)-I-(Pen)+IP-(PEG7(25 atoms))-NH2 (peptide)
peptide: [Sar]ICSRSLP[Oic]I[Pen]IP[PEG7]-NH2
modifications: disulfide 3-11; N-terminus assumed
SMILES: CC[C@H](C)[C@H](NC(=O)CNC)C(=O)N[C@H]1CSSC(C)(C)[C@@H](C(=O)N[C@H](C(=O)N2CCC[C@H]2C(=O)NCCOCCOCCOCCOCCOCCOCCOCCC(N)=O)[C@@H](C)CC)NC(=O)[C@H]([C@@H](C)CC)NC(=O)[C@@H]2C[C@@H]3CCCC[C@@H]3N2C(=O)[C@@H]2CCCN2C(=O)[C@H](CC(C)C)NC(=O)[C@H](CO)NC(=O)[C@H](CCCNC(=N)N)NC(=O)[C@H](CO)NC1=O
B5: (ACMP)-IC+SRS-((tBu)A)-PPI-(Pen)+IPD-NH2 (peptide)
peptide: [cPrCO(1-aminomethyl)]ICSRS[tBuAla]PPI[Pen]IPD-NH2
modifications: disulfide 3-11; N-terminus assumed
SMILES: CC[C@H](C)[C@@H]1NC(=O)[C@@H]2CCCN2C(=O)[C@@H]2CCCN2C(=O)[C@H](CC(C)(C)C)NC(=O)[C@H](CO)NC(=O)[C@H](CCCNC(=N)N)NC(=O)[C@H](CO)NC(=O)[C@@H](NC(=O)[C@@H](NC(=O)C2(CN)CC2)[C@@H](C)CC)CSSC(C)(C)[C@@H](C(=O)N[C@H](C(=O)N2CCC[C@H]2C(=O)N[C@@H](CC(=O)O)C(N)=O)[C@@H](C)CC)NC1=O
B6: (Gamma-Abu)-IC+SRS-((tBu)A)-PPI-(Pen)+IPD-NH2 (peptide)
peptide: [GABA]ICSRS[tBuAla]PPI[Pen]IPD-NH2
modifications: disulfide 3-11; N-terminus assumed
SMILES: CC[C@H](C)[C@H](NC(=O)CCCN)C(=O)N[C@H]1CSSC(C)(C)[C@@H](C(=O)N[C@H](C(=O)N2CCC[C@H]2C(=O)N[C@@H](CC(=O)O)C(N)=O)[C@@H](C)CC)NC(=O)[C@H]([C@@H](C)CC)NC(=O)[C@@H]2CCCN2C(=O)[C@@H]2CCCN2C(=O)[C@H](CC(C)(C)C)NC(=O)[C@H](CO)NC(=O)[C@H](CCCNC(=N)N)NC(=O)[C@H](CO)NC1=O
B7: (Cit)-IC+SRS-((tBu)A)-PPI-(Pen)+IPD-NH2 (peptide)
peptide: [Cit]ICSRS[tBuAla]PPI[Pen]IPD-NH2
modifications: disulfide 3-11; N-terminus assumed
SMILES: CC[C@H](C)[C@H](NC(=O)[C@@H](N)CCCNC(N)=O)C(=O)N[C@H]1CSSC(C)(C)[C@@H](C(=O)N[C@H](C(=O)N2CCC[C@H]2C(=O)N[C@@H](CC(=O)O)C(N)=O)[C@@H](C)CC)NC(=O)[C@H]([C@@H](C)CC)NC(=O)[C@@H]2CCCN2C(=O)[C@@H]2CCCN2C(=O)[C@H](CC(C)(C)C)NC(=O)[C@H](CO)NC(=O)[C@H](CCCNC(=N)N)NC(=O)[C@H](CO)NC1=O
B8: ((N-Me)G)-IC+SRS-((tBu)A)-PPI-(Pen)+IP-(PEG7(25 atoms))-NH2 (peptide)
peptide: [Sar]ICSRS[tBuAla]PPI[Pen]IP[PEG7]-NH2
modifications: disulfide 3-11; N-terminus assumed
SMILES: CC[C@H](C)[C@H](NC(=O)CNC)C(=O)N[C@H]1CSSC(C)(C)[C@@H](C(=O)N[C@H](C(=O)N2CCC[C@H]2C(=O)NCCOCCOCCOCCOCCOCCOCCOCCC(N)=O)[C@@H](C)CC)NC(=O)[C@H]([C@@H](C)CC)NC(=O)[C@@H]2CCCN2C(=O)[C@@H]2CCCN2C(=O)[C@H](CC(C)(C)C)NC(=O)[C@H](CO)NC(=O)[C@H](CCCNC(=N)N)NC(=O)[C@H](CO)NC1=O
B9: AIC+SRS-((tBu)A)-P-(Oic)-IC+I-NH2 (peptide)
peptide: AICSRS[tBuAla]P[Oic]ICI-NH2
modifications: disulfide 3-11; N-terminus assumed
SMILES: CC[C@H](C)[C@H](NC(=O)[C@@H]1CSSC[C@H](NC(=O)[C@@H](NC(=O)[C@H](C)N)[C@@H](C)CC)C(=O)N[C@@H](CO)C(=O)N[C@@H](CCCNC(=N)N)C(=O)N[C@@H](CO)C(=O)N[C@@H](CC(C)(C)C)C(=O)N2CCC[C@H]2C(=O)N2[C@@H](C[C@@H]3CCCC[C@@H]32)C(=O)N[C@@H]([C@@H](C)CC)C(=O)N1)C(N)=O
B10: (Hoo)-IC+SRS-((tBu)A)-PPI-(Pen)+IPD-NH2 (peptide)
peptide: [Dihydroorotyl(S)]ICSRS[tBuAla]PPI[Pen]IPD-NH2
modifications: disulfide 3-11
SMILES: CC[C@H](C)[C@H](NC(=O)[C@@H]1CC(=O)NC(=O)N1)C(=O)N[C@H]1CSSC(C)(C)[C@@H](C(=O)N[C@H](C(=O)N2CCC[C@H]2C(=O)N[C@@H](CC(=O)O)C(N)=O)[C@@H](C)CC)NC(=O)[C@H]([C@@H](C)CC)NC(=O)[C@@H]2CCCN2C(=O)[C@@H]2CCCN2C(=O)[C@H](CC(C)(C)C)NC(=O)[C@H](CO)NC(=O)[C@H](CCCNC(=N)N)NC(=O)[C@H](CO)NC1=O
B11: ((N-Me)A)-IC+SRS-((tBu)A)-PPI-((N-Me)C)+IPD-NH2 (peptide)
peptide: [NMeA]ICSRS[tBuAla]PPI[NMeC]IPD-NH2
modifications: disulfide 3-11; N-terminus assumed
SMILES: CC[C@H](C)[C@H](NC(=O)[C@H](C)NC)C(=O)N[C@H]1CSSC[C@@H](C(=O)N[C@H](C(=O)N2CCC[C@H]2C(=O)N[C@@H](CC(=O)O)C(N)=O)[C@@H](C)CC)N(C)C(=O)[C@H]([C@@H](C)CC)NC(=O)[C@@H]2CCCN2C(=O)[C@@H]2CCCN2C(=O)[C@H](CC(C)(C)C)NC(=O)[C@H](CO)NC(=O)[C@H](CCCNC(=N)N)NC(=O)[C@H](CO)NC1=O
B12: ((N-Me)G)-IC+SRSLP-(Oic)-I-(Pen)+IP-(PEG8(28 atoms))-NH2 (peptide)
peptide: [Sar]ICSRSLP[Oic]I[Pen]IP[PEG8]-NH2
modifications: disulfide 3-11; N-terminus assumed
SMILES: CC[C@H](C)[C@H](NC(=O)CNC)C(=O)N[C@H]1CSSC(C)(C)[C@@H](C(=O)N[C@H](C(=O)N2CCC[C@H]2C(=O)NCCOCCOCCOCCOCCOCCOCCOCCOCCC(N)=O)[C@@H](C)CC)NC(=O)[C@H]([C@@H](C)CC)NC(=O)[C@@H]2C[C@@H]3CCCC[C@@H]3N2C(=O)[C@@H]2CCCN2C(=O)[C@H](CC(C)C)NC(=O)[C@H](CO)NC(=O)[C@H](CCCNC(=N)N)NC(=O)[C@H](CO)NC1=O

Molecular target: T1, recombinant human MASP1 active protease (amino acids 297-699, C-terminal His Tag) (human, UniProt P48740 297-699)
T1 sequence: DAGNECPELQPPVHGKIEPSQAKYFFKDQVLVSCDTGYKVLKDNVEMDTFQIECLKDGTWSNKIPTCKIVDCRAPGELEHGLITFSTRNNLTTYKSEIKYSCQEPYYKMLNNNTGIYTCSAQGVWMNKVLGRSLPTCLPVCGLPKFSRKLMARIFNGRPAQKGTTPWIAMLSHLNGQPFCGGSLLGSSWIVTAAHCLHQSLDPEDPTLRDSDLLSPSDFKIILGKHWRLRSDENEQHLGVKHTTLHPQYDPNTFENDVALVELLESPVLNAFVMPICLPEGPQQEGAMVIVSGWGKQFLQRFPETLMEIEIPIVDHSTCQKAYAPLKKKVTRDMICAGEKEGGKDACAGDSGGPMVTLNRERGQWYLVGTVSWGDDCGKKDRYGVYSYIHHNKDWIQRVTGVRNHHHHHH
Assay: cell-based or functional assay

[3‑Amino‑3‑methylbutyric acid]ICSRS[tBuAla]PPI[Pen]IPD-NH2 (disulfide 3-11) [(3-Amino-3-methylbutyric acid)-IC+SRS-((tBu)A)-PPI-(Pen)+IPD-NH2] and B1 are within 1.5-fold of each other in “human MASP1 IC50” value: 1.9 nM for the first, 1.35 nM for the second.

Going from B2 to B3, the “human MASP1 IC50” value falls from 3.2 nM to 1.9 nM (1.7-fold).

Compared with [(1R,3S,4S)‑2‑azabicyclo(2.2.1)heptane‑3‑carboxylic acid]ICSRS[tBuAla]PPI[Pen]IP-NH2 (disulfide 3-11) [((1R,3S,4S)-2-azabicyclo[2.2.1]heptane-3-carboxylic acid)-IC+SRS-((tBu)A)-PPI-(Pen)+IP-NH2], B4 is 2.3-fold higher in “human MASP1 IC50” value: 1.6 nM for the first, 3.7 nM for the second.

AICSRSLP[Oic]I[Pen]IPD-OH (disulfide 3-11; also: TFA salt) [AIC+SRSLP-(Oic)-I-(Pen)+IPD-OH] and B5 are within 1.5-fold of each other in “human MASP1 IC50” value: 1.85 nM for the first, 1.6 nM for the second.

Compared with AICSRSLP[Oic]I[Pen]IPD-NH2 (disulfide 3-11; also: HCl salt) [AIC+SRSLP-(Oic)-I-(Pen)+IPD-NH2 (HCl salt)], AICSRSLP[Oic]I[Pen]IPD-OH (disulfide 3-11; also: HCl salt) [AIC+SRSLP-(Oic)-I-(Pen)+IPD-OH (HCl salt)] is 1.6-fold higher in “human MASP1 IC50” value: 1.5 nM for the first, 2.45 nM for the second.

First: B6
Second: B7
The “human MASP1 IC50” value of the first is 1.8-fold higher: 3 nM for the first, 1.7 nM for the second.

AICSRSLP[Oic]I[Pen]IPD-NH2 (disulfide 3-11) [AIC+SRSLP-(Oic)-I-(Pen)+IPD-NH2 (salt free form)] and B8 are within 1.5-fold of each other in “human MASP1 IC50” value: 1.5 nM for the first, 1.6 nM for the second.

B9 and B10 are within 1.5-fold of each other in “human MASP1 IC50” value: 3.3 nM for the first, 3 nM for the second.

Molecular target: T2, Recombinant human MASP1 enzyme (fragment corresponding to amino acids 297-699, C-terminal His Tag) (human, UniProt P48740 297-699)
T2 sequence: T1 sequence
Assay: cell-based or functional assay

[3‑Amino‑2,2‑dimethylpropionic acid]ICSRS[tBuAla]PPI[Pen]IPD-NH2 (disulfide 3-11) [(3-Amino-2,2-dimethylpropionic acid)-IC+SRS-((tBu)A)-PPI-(Pen)+IPD-NH2] and B11 are within 1.5-fold of each other in “human MASP1 IC50” value: 4.2 nM for the first, 4.4 nM for the second.

In the case of B12, the “human MASP1 IC50” value is reported as 4.2 nM.
